Tests used:
[1] = target: RNA polymerase core enzyme (alpha2 beta beta' omega) (Escherichia coli, UniProt P0A7Z4;P0A8V2;P0A8T7;P0A800 1-329;1-1342;1-1407;1-91); test: EMSA; 40-160 nM core; tandem (D) complex; EMSA buffer D (1x): 20 mM Tris-acetate, 10 mM Mg acetate, 50 mM K acetate, 1 mM DTT, pH 7.8; native PAGE in 0.5x TBE running buffer; 37 C for the tac and slyD template reactions, otherwise temperature not stated; settings: protein: native; chain copies: 2;1;1;1; label: 5'-32P
[2] = target: RNA polymerase holoenzyme (alpha2 beta beta' omega sigma70) (Escherichia coli, UniProt P0A7Z4;P0A8V2;P0A8T7;P0A800;P00579 1-329;1-1342;1-1407;1-91;1-613); test: EMSA; 40-160 nM holoenzyme; single-copy (M) complex; EMSA buffer D (1x): 20 mM Tris-acetate, 10 mM Mg acetate, 50 mM K acetate, 1 mM DTT, pH 7.8; native PAGE in 0.5x TBE running buffer; 37 C for the tac and slyD template reactions, otherwise temperature not stated; settings: protein: native; chain copies: 2;1;1;1;1; label: 5'-32P

Binder: CGCGCCAACAGCGACATCAAATTTGTCGCC (mixed) [short DNA probe (Fig 2E)]
- binding result [1]: binds
- binding result [2]: binds

— PMC3080401, “Oligomerization of the E. coli Core RNA Polymerase: Formation of (α2ββ'ω)2–DNA Complexes and Regulation of the Oligomerization by Auxiliary Subunits”
